{"source": "patent US20100215656A1", "key": {"CD22 (human)": {"biological_target": "CD22 (human) (UniProt P20273)", "sequence (P20273 20-847)": "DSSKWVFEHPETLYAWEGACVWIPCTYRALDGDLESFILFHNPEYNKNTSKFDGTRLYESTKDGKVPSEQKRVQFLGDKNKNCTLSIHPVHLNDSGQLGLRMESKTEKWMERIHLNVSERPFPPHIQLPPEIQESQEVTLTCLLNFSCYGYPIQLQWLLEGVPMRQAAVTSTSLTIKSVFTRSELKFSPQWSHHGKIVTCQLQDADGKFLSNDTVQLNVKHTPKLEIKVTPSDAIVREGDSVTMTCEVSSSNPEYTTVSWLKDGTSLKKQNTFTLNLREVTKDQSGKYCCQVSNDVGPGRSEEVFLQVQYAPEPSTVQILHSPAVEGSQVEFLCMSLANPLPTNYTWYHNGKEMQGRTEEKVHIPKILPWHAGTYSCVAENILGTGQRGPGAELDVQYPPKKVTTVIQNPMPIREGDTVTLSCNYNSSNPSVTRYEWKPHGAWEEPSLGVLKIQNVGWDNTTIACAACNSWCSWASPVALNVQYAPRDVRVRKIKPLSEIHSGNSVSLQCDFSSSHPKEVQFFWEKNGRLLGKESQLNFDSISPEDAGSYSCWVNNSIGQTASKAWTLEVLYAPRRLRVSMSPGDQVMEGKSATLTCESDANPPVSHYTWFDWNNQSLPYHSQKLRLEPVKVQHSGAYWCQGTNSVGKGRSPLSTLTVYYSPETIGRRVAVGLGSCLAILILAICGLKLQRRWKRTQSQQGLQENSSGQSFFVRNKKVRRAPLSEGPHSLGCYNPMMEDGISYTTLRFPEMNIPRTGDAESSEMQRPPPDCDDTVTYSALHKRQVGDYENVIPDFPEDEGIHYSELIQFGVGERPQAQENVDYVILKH", "test": "cell-based or functional assay"}, "mesothelin": {"biological_target": "mesothelin (UniProt Q13421)", "sequence (Q13421 other isoform, or with tags, fused parts or gaps limits assumed)": "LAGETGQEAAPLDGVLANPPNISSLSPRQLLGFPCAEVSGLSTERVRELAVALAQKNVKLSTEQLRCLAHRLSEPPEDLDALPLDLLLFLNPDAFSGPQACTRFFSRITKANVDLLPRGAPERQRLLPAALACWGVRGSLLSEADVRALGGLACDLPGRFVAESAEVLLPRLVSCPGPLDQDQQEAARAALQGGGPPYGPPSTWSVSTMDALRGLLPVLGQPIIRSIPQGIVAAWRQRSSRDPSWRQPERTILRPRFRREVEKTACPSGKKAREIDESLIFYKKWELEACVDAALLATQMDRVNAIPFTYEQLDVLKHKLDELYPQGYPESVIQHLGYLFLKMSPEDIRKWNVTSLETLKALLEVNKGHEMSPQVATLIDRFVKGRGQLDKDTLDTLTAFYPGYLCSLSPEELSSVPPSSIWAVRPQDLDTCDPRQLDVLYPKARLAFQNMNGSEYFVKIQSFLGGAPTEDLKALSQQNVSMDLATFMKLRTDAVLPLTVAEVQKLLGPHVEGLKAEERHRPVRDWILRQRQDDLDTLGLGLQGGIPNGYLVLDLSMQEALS", "test": "cell-based or functional assay"}}, "data": [{"substance": "HA22-LR (anti-CD22 dsFv of HA22 fused to the 25-kDa lysosome-resistant PE fragment, PE25 / PE-LR)", "values": [{"measurement": "Relative Activity (against HA22) on CA46 cells", "setting": "CD22 (human)", "result": 1.15}, {"measurement": "Relative Activity (against HA22) on Daudi cells", "setting": "CD22 (human)", "result": 1.12}, {"measurement": "Relative Activity (against HA22) on KOPN-8 cells", "setting": "CD22 (human)", "result": 0.22}, {"measurement": "Relative Activity (against HA22) on Raji cells", "setting": "CD22 (human)", "result": 0.49}, {"measurement": "Relative Activity (against HA22) on Ramos cells", "setting": "CD22 (human)", "result": 0.91}, {"measurement": "Relative Activity (against HA22) on WSU-CLL cells", "setting": "CD22 (human)", "result": 2.12}, {"measurement": "Relative Activity (against HA22), cell death, CLL #1", "setting": "CD22 (human)", "result": 16.2}, {"measurement": "Relative Activity (against HA22), cell death, CLL #2", "setting": "CD22 (human)", "result": 7.65}, {"measurement": "Relative Activity (against HA22), cell death, HCL #2", "setting": "CD22 (human)", "result": 0.08}, {"measurement": "Relative Activity (against HA22), cell death, HCL #3", "setting": "CD22 (human)", "result": 1.39}, {"measurement": "Relative Activity (against HA22), protein synthesis, CLL #1", "setting": "CD22 (human)", "result": "> 210"}, {"measurement": "Relative Activity (against HA22), protein synthesis, CLL #2", "setting": "CD22 (human)", "result": "> 16.8"}, {"measurement": "Relative Activity (against HA22), protein synthesis, CLL #3", "setting": "CD22 (human)", "result": 2.07}, {"measurement": "Relative Activity (against HA22), protein synthesis, CLL #4", "setting": "CD22 (human)", "result": 51.8}, {"measurement": "Relative Activity (against HA22), protein synthesis, CLL #5", "setting": "CD22 (human)", "result": 2.16}, {"measurement": "Relative Activity (against HA22), protein synthesis, HCL #1", "setting": "CD22 (human)", "result": 0.88}, {"measurement": "Relative Activity (against HA22), protein synthesis, HCL #2", "setting": "CD22 (human)", "result": 0.14}, {"measurement": "Relative Activity (against HA22), protein synthesis, HCL #3", "setting": "CD22 (human)", "result": "> 1.76"}, {"measurement": "inhibition of protein synthesis at 1 ng/ml, patient cells CLL #2", "setting": "CD22 (human)", "result": 55, "unit": "%"}]}, {"substance": "SS1-PE-LR (antibody SS1 fused to the PE used in HA22-LR)", "values": [{"measurement": "IC50 (ng/ml), cytotoxicity on A431/K5 cells", "setting": "mesothelin", "result": 1.19, "unit": "ng/mL"}, {"measurement": "IC50 (ng/ml), cytotoxicity on A1847 cells (*Incomplete cell killing)", "setting": "mesothelin", "result": 4.24, "unit": "ng/mL"}, {"measurement": "IC50 (ng/ml), cytotoxicity on HAY cells", "setting": "mesothelin", "result": 1.22, "unit": "ng/mL"}, {"measurement": "IC50 (ng/ml), cytotoxicity on KB31 cells (*Incomplete cell killing)", "setting": "mesothelin", "result": "> 1000", "unit": "ng/mL"}, {"measurement": "IC50 (ng/ml), cytotoxicity on L55 cells", "setting": "mesothelin", "result": 3.87, "unit": "ng/mL"}, {"measurement": "IC50 (ng/ml), cytotoxicity on OVCAR-8 cells (*Incomplete cell killing)", "setting": "mesothelin", "result": 4.29, "unit": "ng/mL"}, {"measurement": "Relative Activity (against the PE38 immunotoxin) on A431/K5 cells", "setting": "mesothelin", "result": 0.17}, {"measurement": "Relative Activity (against the PE38 immunotoxin) on A1847 cells", "setting": "mesothelin", "result": 0.96}, {"measurement": "Relative Activity (against the PE38 immunotoxin) on HAY cells", "setting": "mesothelin", "result": 3.72}, {"measurement": "Relative Activity (against the PE38 immunotoxin) on KB31 cells (fold decrease)", "setting": "mesothelin", "result": "> 200"}, {"measurement": "Relative Activity (against the PE38 immunotoxin) on L55 cells", "setting": "mesothelin", "result": 1.23}, {"measurement": "Relative Activity (against the PE38 immunotoxin) on OVCAR-8 cells", "setting": "mesothelin", "result": 0.54}]}, {"substance": "SS1P (antibody SS1 fused to PE38)", "values": [{"measurement": "IC50 (ng/ml), cytotoxicity on A431/K5 cells", "setting": "mesothelin", "result": 0.2, "unit": "ng/mL"}, {"measurement": "IC50 (ng/ml), cytotoxicity on A1847 cells", "setting": "mesothelin", "result": 4.06, "unit": "ng/mL"}, {"measurement": "IC50 (ng/ml), cytotoxicity on HAY cells", "setting": "mesothelin", "result": 4.54, "unit": "ng/mL"}, {"measurement": "IC50 (ng/ml), cytotoxicity on KB31 cells", "setting": "mesothelin", "result": 5.15, "unit": "ng/mL"}, {"measurement": "IC50 (ng/ml), cytotoxicity on L55 cells", "setting": "mesothelin", "result": 4.77, "unit": "ng/mL"}, {"measurement": "IC50 (ng/ml), cytotoxicity on OVCAR-8 cells", "setting": "mesothelin", "result": 2.32, "unit": "ng/mL"}]}]}
